Experimental data: publication PMC4769027 (Journal of structural biology, 2016)
Blank lines part the entries; values can stand above or below the binder they belong to.

Biological target: wild-type IgG1 Fc (human, UniProt P01857 108-328 = IgG part, N-linked glycan at Asn297)
Experiment: SPR

- Kd: 9.28 µM
B1: FcγRIIb ectodomain (receptor, human, UniProt P31994 43-217, looked up)
chain: TPAAPPKAVLKLEPQWINVLQEDSVTLTCRGTHSPESDSIQWFHNGNLIPTHTQPSYRFKANNNDSGEYTCQTGQTSLSDPVHLTVLSEWLVLQTPHLEFQEGETIVLRCHSWKDKPLVKVTFFQNGKSKKFSRSDPNFSIPQANHSHSGDYHCTGNIGYTLYSSKPVTITVQAP

- Kd: 4.49 µM
B2: FcγRIIa H131 variant ectodomain (receptor, human, UniProt P12318 34-211, looked up)
chain: QAAAPPKAVLKLEPPWINVLQEDSVTLTCQGARSPESDSIQWFHNGNLIPTHTQPSYRFKANNNDSGEYTCQTGQTSLSDPVHLTVLSEWLVLQTPHLEFQEGETIMLRCHSWKDKPLVKVTFFQNGKSQKFSHLDPTFSIPQANHSHSGDYHCTGNIGYTLFSSKPVTITVQVPSMG
